In patent publication US20220089647A1 (FUJIFILM, published 2022):
Starred links: 1 amine or outer side, 2 acyl side, 3 side chain; linkers in the order of their positions; H or OH if unused. Positions of bridges follow the written chain, without caps; N, C: chain ends. Non-standard residues stand in square brackets, D forms with d. Primed or numbered codes have the meaning given here. No end group written: not given here. Dab(acetyl)″ = 2-amino-4-(acetylamino)butanoic acid, acetyl CH3 carbon bonded to the S of Hcy (S-CH2-C(=O)-NH-), O=C(C[*:3])NCC[C@H](N[*:1])C(=O)[*:2]; Dab(acetyl) = 2-amino-4-acetylamino-butanoic acid residue (N-γ-acetyl-diaminobutyric acid), CC(=O)NCC[C@H](N[*:1])C(=O)[*:2]; Dap(acetyl) = 2-amino-3-acetylamino-propanoic acid residue, CC(=O)NC[C@H](N[*:1])C(=O)[*:2]; COCH2 = acetyl group that carries the bridge; hCys = N[C@@H](CCS)C(=O)O; Dab = NCC[C@H](N)C(=O)O

biological target: T1, human integrin αvβ5 (human, UniProt P06756 31-992; P18084 24-719, limits assumed); test: SPR, Biacore 3000, peptide immobilised; A = KD 50 nM or less
T1 construct: Heterodimer flowed as analyte at 30, 100, 300 and 1,000 nM in HEPES buffer with 5 mM MgCl2
T1 sequence (P06756 31-992 limits assumed, chain 1 of 2): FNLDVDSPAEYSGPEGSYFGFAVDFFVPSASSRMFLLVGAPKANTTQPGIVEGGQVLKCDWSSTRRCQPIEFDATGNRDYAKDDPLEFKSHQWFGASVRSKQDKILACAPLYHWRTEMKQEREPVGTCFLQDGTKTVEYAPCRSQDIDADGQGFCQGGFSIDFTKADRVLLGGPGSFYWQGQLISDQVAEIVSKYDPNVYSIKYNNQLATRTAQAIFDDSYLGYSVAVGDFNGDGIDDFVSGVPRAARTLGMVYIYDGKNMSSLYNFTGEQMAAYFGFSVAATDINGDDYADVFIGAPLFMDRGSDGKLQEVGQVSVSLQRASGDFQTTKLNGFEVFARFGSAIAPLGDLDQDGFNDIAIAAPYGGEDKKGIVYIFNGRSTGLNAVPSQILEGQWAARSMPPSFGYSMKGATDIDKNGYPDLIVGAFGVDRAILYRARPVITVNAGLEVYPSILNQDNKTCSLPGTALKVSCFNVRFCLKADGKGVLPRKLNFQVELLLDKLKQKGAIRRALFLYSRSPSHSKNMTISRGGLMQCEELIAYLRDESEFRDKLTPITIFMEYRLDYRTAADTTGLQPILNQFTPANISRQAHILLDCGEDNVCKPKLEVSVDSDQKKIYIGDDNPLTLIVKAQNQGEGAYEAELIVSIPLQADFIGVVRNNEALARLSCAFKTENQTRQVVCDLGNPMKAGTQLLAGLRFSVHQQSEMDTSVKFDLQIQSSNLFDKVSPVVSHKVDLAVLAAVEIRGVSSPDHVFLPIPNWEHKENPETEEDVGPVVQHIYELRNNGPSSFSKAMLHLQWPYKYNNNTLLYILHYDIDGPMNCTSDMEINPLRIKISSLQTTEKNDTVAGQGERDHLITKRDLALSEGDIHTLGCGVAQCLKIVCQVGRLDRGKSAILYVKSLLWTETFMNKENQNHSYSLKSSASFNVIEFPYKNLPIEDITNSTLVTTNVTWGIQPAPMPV
T1 sequence (P18084 24-719 limits assumed, chain 2 of 2): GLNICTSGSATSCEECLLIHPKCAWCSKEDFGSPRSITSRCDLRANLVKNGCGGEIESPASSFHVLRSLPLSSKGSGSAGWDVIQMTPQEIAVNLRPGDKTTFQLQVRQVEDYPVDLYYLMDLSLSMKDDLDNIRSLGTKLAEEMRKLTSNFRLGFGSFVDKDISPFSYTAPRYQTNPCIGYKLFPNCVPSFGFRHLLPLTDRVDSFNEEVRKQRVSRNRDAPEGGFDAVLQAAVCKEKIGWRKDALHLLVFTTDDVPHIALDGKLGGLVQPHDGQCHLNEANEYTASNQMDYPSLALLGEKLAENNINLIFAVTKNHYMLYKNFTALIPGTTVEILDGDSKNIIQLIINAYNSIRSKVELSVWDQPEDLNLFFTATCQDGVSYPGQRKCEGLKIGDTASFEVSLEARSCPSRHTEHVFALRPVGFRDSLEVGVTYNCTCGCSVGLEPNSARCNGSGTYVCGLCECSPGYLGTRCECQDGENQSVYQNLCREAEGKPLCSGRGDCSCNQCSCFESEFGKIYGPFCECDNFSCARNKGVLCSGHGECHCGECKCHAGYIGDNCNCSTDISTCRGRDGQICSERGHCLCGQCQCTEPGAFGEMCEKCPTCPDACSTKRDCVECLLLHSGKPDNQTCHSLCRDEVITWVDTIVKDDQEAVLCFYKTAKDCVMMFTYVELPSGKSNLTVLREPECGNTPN

dissociation constant (KD) [nM]	Binder
≤ 50	KKK[hCys]DPRGDTFA[Dab(acetyl)] (thioether 4-13) [Cyclic peptide 144]
≤ 50	KKK[hCys]VPRGDTFS[Dab(acetyl)] (thioether 4-13) [Cyclic peptide 153]
≤ 50	KKK[hCys]EPRGDTFA[Dab(acetyl)] (thioether 4-13) [Cyclic peptide 145]
≤ 50	KKK[hCys]VSRGDTFA[Dab(acetyl)] (thioether 4-13) [Cyclic peptide 149]
≤ 50	KKK[hCys]TTRGDTFA[Dab(acetyl)] (thioether 4-13) [Cyclic peptide 155]

Second part, the binder before the results:

Binder	dissociation constant (KD) [nM]
KKKA[hCys]TPRGDTFA[Dab](COCH2)A (thioether 5-14) [Cyclic peptide 160]	≤ 50
KKK[hCys]VTRGDTFA[Dab(acetyl)] (thioether 4-13) [Cyclic peptide 150]	≤ 50
KKK[hCys]VPRGDVFA[Dab(acetyl)] (thioether 4-13) [Cyclic peptide 151]	≤ 50
KKK[hCys]TPRGDTFA[Dab(acetyl)] (thioether 4-13) [Cyclic peptide 147]	≤ 50
KKK[hCys]YPRGDTFA[Dab(acetyl)] (thioether 4-13) [Cyclic peptide 148]	≤ 50
KKK[hCys]VPRGDTFG[Dab(acetyl)] (thioether 4-13) [Cyclic peptide 152]	≤ 50
KKK[hCys]LPRGDTFA[Dab(acetyl)] (thioether 4-13) [Cyclic peptide 146]	≤ 50

biological target: T1, human integrin αvβ5; test: SPR, Biacore 3000, peptide immobilised; B = KD more than 50 nM and 100 nM or less
Protocol: However, only for the cyclic peptides 125, 126, and 127, in which the number of lysine residues having an amino group as the immobilizing functional group was zero, the amount of the sample solution to be supplied to the sensor chip was set to 500 μL instead of 20 μL. Further, 70 μL of the mixed aqueous solution of 0.2 M EDC and 0.04 M NHS was added to another flow channel of the same sensor chip without immobilizing the sample, and then blocking treatment and washing treatment were carried out. Hereinafter, the obtained immobilization-treated sensor chip is referred to as an “immobilization-treated sensor chip A”.
After adding human integrin αvβ5 for 10 minutes at 25° C., which was diluted to 30 nM using a HEPES buffer solution to which magnesium chloride was added to 5 mM, in each flow channel of the immobilization-treated sensor chip A prepared in (1) above, the same HEPES buffer solution (containing 5 mM magnesium chloride) was allowed to flow as a running buffer for 30 minutes, and measurement was carried out with Biacore 3000. Then, a regeneration treatment of removing human integrin αvβ5 was carried out by allowing a 0.5 M EDTA aqueous solution to flow through each flow channel for 10 minutes. Further, the above-described measurement process consisting of adding integrin for 10 minutes, allowing a running buffer to flow for 30 minutes, carrying out measurement with Biacore 3000, and carrying out regeneration treatment with 0.5 M EDTA aqueous solution was carried out in the same manner for 100 nM human integrin αvβ5, 300 nM human integrin αvβ5, and 1,000 nM human integrin αvβ5. Dissociation constant between the cyclic peptide and human integrin αvβ5 was calculated from the difference between the value measured by Biacore 3000 in the flow channel immobilized with the cyclic peptide and the value measured by Biacore 3000 in the flow channel unimmobilized with the cyclic peptide, in a case where each concentration of human integrin αvβ5 was allowed to flow, and the integrin binding property was evaluated according to the following evaluation standards. It is preferable that the evaluation result satisfies the evaluation standard A, B, or C.

dissociation constant (KD) [nM]	dissociation constant [nM]	Binder
50 to 100	–	KKK[Dap(acetyl)]EPRGDNYR[hCys]-NH2 (thioether 4-13) [Cyclic peptide 52]
50 to 100	–	KKKA[hCys]EPRGDNYR[Dab(acetyl)″]E (thioether 5-14) [Cyclic peptide 43]
50 to 100	–	KKKD[hCys]EPRGDNYR[Dab](COCH2)D (thioether 5-14) [Cyclic peptide 38]
50 to 100	–	KKKA[hCys]EPRGDNYR[Dab(acetyl)″]A (thioether 5-14) [Cyclic peptide 41]
–	50 to 100	KKK[hCys]IPRGDVF[Dab(acetyl)″] (thioether 4-12) [Cyclic peptide 65]
–	50 to 100	KKKGXIPRGDXFRXA (not fully specified; KKKG-(Hcy)-IPRGD-(HmS)-FR(Dab(acetyl))A; HmS = homoserine; thioether bond Hcy-Dab(acetyl)) [Cyclic peptide 73]
50 to 100	–	KKK[hCys]EPRGDNYR[Dab(acetyl)″]-NH2 (thioether 4-13; N-terminus assumed; SMILES N=C(N)NCCC[C@@H]1NC(=O)[C@H](Cc2ccc(O)cc2)NC(=O)[C@H](CC(N)=O)NC(=O)[C@H](CC(=O)O)NC(=O)CNC(=O)[C@H](CCCNC(=N)N)NC(=O)[C@@H]2CCCN2C(=O)[C@H](CCC(=O)O)NC(=O)[C@@H](NC(=O)[C@H](CCCCN)NC(=O)[C@H](CCCCN)NC(=O)[C@@H](N)CCCCN)CCSCC(=O)NCC[C@@H](C(N)=O)NC1=O) [Cyclic peptide 49]
50 to 100	–	KKKG[hCys]IPRGDNF[Dab(acetyl)″]A (thioether 5-13) [Cyclic peptide 6]
50 to 100	–	KKKA[Dap(acetyl)]EPRGDNYR[hCys] (thioether 5-14) [Cyclic peptide 47]
50 to 100	–	KKK[Dap(acetyl)]EPRGDNYR[hCys] (thioether 4-13) [Cyclic peptide 46]
50 to 100	–	KKKG[hCys]AIPRGDNFRA[Dab](COCH2)A (thioether 5-16) [Cyclic peptide 20]
50 to 100	–	KKKA[hCys]EPRGDNYR[Dab(acetyl)″] (thioether 5-14) [Cyclic peptide 45]
–	50 to 100	KKKGXIPRGDTFRXA (not fully specified; KKKG-(Pen)-IPRGDTFR(Dab(acetyl))A; thioether bond Pen-Dab(acetyl)) [Cyclic peptide 129]
50 to 100	–	KKK[hCys]AAIPRGDNFR[Dab](COCH2)A (thioether 4-15) [Cyclic peptide 18]
50 to 100	–	KKK[hCys]DPRGDNFR[Dab](COCH2)A (thioether 4-13) [Cyclic peptide 22]
50 to 100	–	KKK[hCys]IPRGDNYR[Dab](COCH2)A (thioether 4-13) [Cyclic peptide 26]

Further lines, the binder ahead of its results:

Binder	dissociation constant (KD) [nM]	dissociation constant [nM]
KKKGXPRGDNFRXA (not fully specified; KKKG-(Hcy)-PRGDNFR(Dab(acetyl))A; thioether bond Hcy-Dab(acetyl)) [Cyclic peptide 8]	50 to 100	–
KKK[hCys]IPRGDNFRA[Dab](COCH2)A (thioether 4-14) [Cyclic peptide 16]	50 to 100	–
KKK[hCys]AIPRGDNFRA[Dab](COCH2)A (thioether 4-15) [Cyclic peptide 17]	50 to 100	–
KKKA[hCys]EPRGDNYR[Dab(acetyl)″]D (thioether 5-14) [Cyclic peptide 42]	50 to 100	–
KKKA[hCys]VPRGDNYR[Dab](COCH2)D (thioether 5-14) [Cyclic peptide 29]	50 to 100	–
KKKG[hCys]EPRGDNYR[Dab](COCH2)D (thioether 5-14) [Cyclic peptide 37]	50 to 100	–
KKKA[hCys]EPRGDNYE[Dab](COCH2)D (thioether 5-14) [Cyclic peptide 36]	50 to 100	–
KKKA[hCys]EPRGDNYR[Dab(acetyl)″]G (thioether 5-14) [Cyclic peptide 40]	50 to 100	–
KKKGXIPRGDTFRXA (not fully specified; KKKG(Lys(acetyl))IPRGDTFR-(Pen)-A; thioether bond Lys(acetyl)-Pen) [Cyclic peptide 135]	–	50 to 100
KKKGXIPRGDTFRCA (not fully specified; KKKG(Dab(acetyl))IPRGDTFR(C)A; thioether bond Dab(acetyl)-Cys) [Cyclic peptide 138]	–	50 to 100
KKKGXIPRGDTFRXA (not fully specified; KKKG-(Pen)-IPRGDTFR(Lys(acetyl))A; thioether bond Pen-Lys(acetyl)) [Cyclic peptide 131]	–	50 to 100
KKK[hCys]AIPRGDNFR[Dab(acetyl)]A (thioether 4-14) [Cyclic peptide 15]	50 to 100	–
KKKGXIPRGDTFRXA (not fully specified; KKKG(Dab(acetyl))IPRGDTFR-(Pen)-A; thioether bond Dab(acetyl)-Pen) [Cyclic peptide 133]	–	50 to 100
KKK[hCys]IPRGDSFR[Dab](COCH2)A (thioether 4-13) [Cyclic peptide 25]	50 to 100	–
KKK[hCys]EPRGDNYR[Dab(acetyl)″] (thioether 4-13) [Cyclic peptide 44]	50 to 100	–
KKKA[Dap(acetyl)]EPRGDNYR[hCys]-NH2 (thioether 5-14) [Cyclic peptide 53]	50 to 100	–
